Measurements reported in patent US11926678B2, “Composite polypeptide having a metal binding motif and molecular construct comprising the same” (Immunwork Inc., priority 2020, dated 2024).

T1: human CD19 on human B lymphoma cell lines Ramos (Homo sapiens, UniProt P15391)
T1 construct: two molecular constructs containing MBM-1 and MBM-3 on CD19-expressing Ramos cells; endogenous in cells; host or cells: Ramos (human B lymphoma cell line)
T1 sequence (P15391 20-556): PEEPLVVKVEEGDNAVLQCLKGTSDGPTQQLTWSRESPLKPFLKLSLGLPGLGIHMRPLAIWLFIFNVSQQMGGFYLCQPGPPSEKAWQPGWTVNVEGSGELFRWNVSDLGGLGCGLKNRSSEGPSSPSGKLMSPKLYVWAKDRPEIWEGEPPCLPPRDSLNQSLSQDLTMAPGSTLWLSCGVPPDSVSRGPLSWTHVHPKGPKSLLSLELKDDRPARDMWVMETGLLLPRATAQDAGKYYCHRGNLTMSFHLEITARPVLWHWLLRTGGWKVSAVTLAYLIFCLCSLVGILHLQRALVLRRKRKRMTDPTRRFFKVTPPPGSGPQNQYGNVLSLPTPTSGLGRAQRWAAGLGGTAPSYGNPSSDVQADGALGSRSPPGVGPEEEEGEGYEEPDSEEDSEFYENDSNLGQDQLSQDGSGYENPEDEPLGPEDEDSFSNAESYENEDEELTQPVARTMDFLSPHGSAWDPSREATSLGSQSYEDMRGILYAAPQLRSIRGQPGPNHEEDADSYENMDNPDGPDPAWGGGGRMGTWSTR

T2: human CD19 on human B lymphoma cell line Raji (Homo sapiens, UniProt P15391)
T2 construct: incubating 1×10^6 CD19-expressing Raji cells with 0.001 μg/ml of each construct; endogenous in cells; host or cells: Raji (human B lymphoma cell line)
T2 sequence (P15391 20-556): T1 sequence (P15391 20-556)

B1: stabilized 2-chain (scFv α CD19)-Fc-MBM-1×2 DOTA bundles: 2-chain anti-CD19 scFv-Fc fusion with MBM-1 (ACPGHA), two Mal-Peptide 2-DOTA bundles conjugated, maleimide ring opened (conjugate)
chain: EIVLTQSPAIMSASPGERVTMTCSASSGVNYMHWYQQKPGTSPRRWIYDTSKLASGVPARFSGSGSGTDYSLTISSMEPEDAATYYCHQRGSYTFGGGTKLEIKRGSTSGSGKPGSGEGSTKGQVQLVQPGAEVVKPGASVKLSCKTSGYTFTSNWMHWVKQAPGQGLEWIGEIDPSDSYTNYNQNFQGKAKLTVDKSTSTAYMEVSSLRSDDTAVYYCARGSNPYYYAMDYWGQGTSVTVSSGGGASDKTHTCPPCPAPELLGGPSVFLFPPKPKDTLMISRTPEVTCVVVDVSHEDPEVKFNWYVDGVEVHNAKTKPREEQYNSTYRVVSVLTVLHQDWLNGKDYKCKVSNKALPAPIEKTISKAKGQPREPQVYTLPPSRDELTRNQVSLTCLVKGFYPSDIAVEWESNGQPENNYKTTPPVLDSDGSFFLYSKLTVDKSRWQQGNVFSCSVMHEALHNHYTQKSLSLSPGGGGACPGHA
B2: (scFv α CD19)-Fc-MBM-1 fusion protein: scFv specific for human CD19 (from RB4v1.2) fused to IgG1.Fc, GGGG linker and MBM-1 ACPGHA; SEQ ID NO: 13 (protein)
chain: B1 chain

Experiments:
[1] = Stability with glutathione or human serum albumin, SDS-PAGE; format: in vitro ADME; conditions: 37° C., 30 days
Experimental: To evaluate the stability of the stabilized 2-chain (scFv α CD19)-Fc-MBM-1×2 DOTA bundles, the molecular constructs were placed in Tris buffer (100 mM Tris buffer at pH 7.3, 50 mM Bis-Tris buffer, and 290 mM NaCl) with glutathione or human serum albumin, and then incubated at 37° C. for 30 days.

[2] = molecular target: T1, human CD19 on human B lymphoma cell lines Ramos; assay: Cell staining (FACS) binding to CD19-expressing Ramos cells; format: cell-based
Experimental: (§1) Two stabilized molecular constructs, (scFv α CD19)-Fc-MBM-1×2 DOTA bundles and (scFv α CD19)-Fc-MBM-3×2 DOTA bundles, were analyzed for their ability to bind to human CD19 on human B lymphoma cell line Raji. The assay was performed by incubating 1×10^6 CD19-expressing Raji cells with 0.001 μg/ml of each construct in PBS, 1% BSA on ice for 30 minutes, using anti-CD19 antibody (RB4v1.2), (scFv α CD19)-Fc-MBM-1×2 DOTA bundles and (scFv α CD19)-Fc-MBM-3×2 DOTA bundles as positive controls. The anti-HER2 antibody (trastuzumab) was used as a negative control. The staining of cells was analyzed by FACS (FACSCanto II; BD Biosciences) using FITC-conjugated goat anti-human IgG.Fc (diluted 1:200 in PBS/BSA) (Caltag, Buckingham, UK) at 4° C. for 20 minutes in the dark.
These molecular constructs were also analyzed for their ability to bind to human CD19 on human B lymphoma cell lines Ramos. The assay was performed using the protocol similar to the one used in cell binding assay with Raji cells. The staining of Ramos cells was analyzed by FACS (FACSCanto II; BD Biosciences) using FITC-conjugated goat anti-human IgG.Fc, where anti-CD19 IgG is used as a positive control. The anti-HER2 antibody (trastuzumab) was used as a negative control. […]

[3] = Half-life in BALB/c mice after i.v. administration (serum ELISA); format: in vivo; conditions: about 200 μL of 3.33 μM protein
Experimental: The measurement of half-lives of the stabilized 2-chain (scFv α CD19)-Fc-MBM-1×2 DOTA bundles was carried out in mice after i.v. administration. The (scFv α CD19)-Fc-MBM-1×2 DOTA bundles in the serum sample was observed using ELISA. 8 to 10-week-old BALB/c mice were purchased from BioLasco, Taipei, Taiwan. Mice were grouped into three mice per group, and were injected intravenously with about 200 μL of 3.33 μM protein.

[4] = tested on: CD19-expressing tumors (Raji xenograft); assay: Biodistribution by tissue ELISA in CD19-expressing xenograft tumor model; format: in vivo, NOD-SCID mice; conditions: day 7 after i.v. injection
Experimental: For biodistribution analysis of the stabilized (scFv α CD19)-Fc-MBM-1×2 DOTA bundles in xenograft mouse model, the procedure set forth in Example 32 was used with some modifications.
Briefly, the mice were injected subcutaneously with 1×10^7 B-cell lymphoma Raji cells per mouse 2 to 3 weeks before the treatment. The mice were grouped into three mice per group, and were injected intravenously with about 200 μL of 6.65 μM labeled molecule.
Biodistribution of NOD-SCID mice were analyzed by tissue ELISA at 7 days after the administration of the stabilized 2-chain (scFv α CD19)-Fc-MBM-1×2 DOTA bundles and the anti-CD19 antibody. Briefly, the animals were sacrificed at day 7 after injection. Blood was hemospasia from the heart, and tissue samples from 11 organs were collected. Tissues samples were homogenized using homogenizer and analyzed further for measuring the concentration of the injected molecules by ELISA.

[5] = molecular target: T2, human CD19 on human B lymphoma cell line Raji; assay: Cell staining (FACS) binding to CD19-expressing Raji cells; format: cell-based; conditions: 0.001 μg/ml, on ice 30 minutes
Experimental: as §1

[6] = Examination of retro-Michael addition product, Western blot; format: in vitro ADME; conditions: 37° C., 30 days, compared with stock at 4° C.
Experimental: A further confirmation of the stability of the 2-chain (scFv α CD19)-Fc-MBM-1×2 DOTA bundles, the stabilized molecular construct was incubated with glutathione or HSA and then analyzed using Western blot.
For the western blot analysis of the stabilized samples, briefly, the samples were separated on 8% SDS-PAGE gels and transferred to a poly(vinylidene fluoride) (PVDF) membrane (Millipore). The membrane blots were blocked in PBS containing 5% BSA and 0.05% Tween 20 for 1 hour at room temperature. After washing 3 times with phosphate buffered saline tween-20 (PBST) containing PBS and 0.05% Tween-20, the blots were incubated with goat anti-human IgG.Fc antibody conjugated with horseradish peroxidase (Millipore). Then the membranes were washed 3 times with PBST, and immunoreacted bands were detected using ECL™ western blotting detection reagents (Millipore) and exposed on Fujifilm (Tokyo, Japan).

[7] = tested on: CD19-expressing tumors (Raji xenograft); assay: IVIS imaging of targeting to CD19-expressing xenograft tumor; format: in vivo, NOD-SCID mice
Text: In this Example, in vivo imaging system (IVIS) was used to investigate the targeting effect of the stabilized 2-chain (scFv α CD19)-Fc-MBM-1×2 DOTA bundles to CD19-expressing tumors in mouse xenograft model. Prior to IVIS imaging, a Dylight 680 Antibody Labeling Kit (Thermo Scientific) was used to conjugate the stabilized 2-chain (scFv α CD19)-Fc-MBM-1×2 DOTA bundles from Example 19 and the anti-CD19 antibody (RB4v1.2), according to the manufacturer's instructions.
8 to 10-week-old NOD-SCID (NOD.CB17-Prkdc^scid/JNarl) were purchased from Laboratory Animal Facility of Institute of Cellular and Organismic Biology, Academia Sinica, Taipei, Taiwan. The mice were injected intraperitoneally with 1×10^7 B-cell lymphoma Raji cells per mouse 2 weeks before the treatment. The mice were grouped into three mice per group, and were injected intravenously with about 200 μL of 6.65 μM labeled molecule. At various time points, mice were anaesthetized with isoflurane in O2 and placed in the IVIS Spectrum In Vivo Imaging System (PerkinElmer) with a supine position. […] Images were captured at indicated time points using IVIS Spectrum imager and analyzed with Living Image software.
Fluorescent images from NOD-SCID mice were captured and analyzed at 0 hour, 24 hours, 48 hours, and 72 hours after the administration of DyLight 680-conjugated proteins. […]

Molecule	stability while incubated with glutathione or human serum albumin ([1]; SDS-PAGE)	intact molecular construct still in solution without retro-Michael addition product ([1]; HSA-treated group)	intact molecular construct still in solution without retro-Michael addition product ([1]; glutathione-treated group)	binding to Ramos cells (cell staining) [2]	half-life [3] [h]	targeting of CD19-expressing tumors (tissue-to-blood ratio biodistribution) [4]	binding to Raji cells (cell staining) [5]	stability while incubated with glutathione or HSA [6]	penetration into tumors compared with normal organ ([7]; 24, 48 and 72 hours after i.v. injection, DyLight 680-labeled)	targeting effect to CD19-expressing tumors ([7]; mouse xenograft model)
B1	satisfactory stability	approximately 90%	approximately 90%	bound to Ramos cells substantially positively	~193.5	can target CD19-expressing tumors	bound to Raji cells substantially positively	satisfactory stability	significantly greater	satisfactory targeting effect
B2					~179.6					
